Experimental data taken from patent US20260217833A1 (APTEVO RESEARCH AND DEVELOPMENT, published 2026).
Changes are numbered by the printed parent chain.

T1: Cynomolgus CHOK1SV/CD40
T1 construct: also called Cyno CD40 full-length; CD4001013
T1 receptor chain: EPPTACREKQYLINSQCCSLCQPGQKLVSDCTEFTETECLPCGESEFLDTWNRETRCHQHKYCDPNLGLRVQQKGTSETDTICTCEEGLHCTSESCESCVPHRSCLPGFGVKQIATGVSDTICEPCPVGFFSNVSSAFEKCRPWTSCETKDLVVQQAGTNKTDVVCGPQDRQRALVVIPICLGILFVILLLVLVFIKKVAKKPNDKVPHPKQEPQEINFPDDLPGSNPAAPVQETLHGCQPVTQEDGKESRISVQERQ

B1: PDL01048 (Fc fusion, not shown: a dimerising Fc or GST; small tags and cut ends)
scFv: DIVLTQSPASLAVSLGQRATISCRASKSVSKSGYSYLHWYQQKPGQTPKLLIYLASNLESGVPARFSGSGSGTDFTLNIHPVEEEDAATYYCQHSWELPYTFGGGTKLEIKGGGGSGGGGSGGGGSGGGGSEVQLQESGPSLVKPSQTLSLTCSVTGDSITSGYWNWIRKFPGKKLEYMGYISYTGSTYYNPSLKSRISIARDTSKNQYFLQLNSVTTEDTATYYCTRGENWDGGYFDYWGQGTTLTVSS
notes: also called 7H11LH x human IgG1 WT Fc
B2: PDL01049 (10B2LH x human IgG1 WT Fc) (Fc fusion)
chain: DIQMTQTTSSLSASLGDRVTISCRASQDIRNYLNWYQQKPDGTVKLLIYYTSRLQSGVPSRFSGSGSGTDYSLTITTLEQEDFATYFCQQGNMFPYTFGGGTKLEIKGGGGSGGGGSGGGGSGGGGSKVQLQQSGAEVVKPGASVKLSCKASGYNLTEYIIHWVKQRSGQGLEWIGWFYPGSGSIKYNEKFKDKATLTADKSSTTVYMDLSRLTSEDSAVYFCARHGLYYGFPYWGQGTSVTVSS
notes: not shown: human IgG1 WT Fc
B3: PDL01036 (6F6HL x human IgG1 WT Fc) (Fc fusion)
chain: QGQMQQSGAELVKPGASVKLSCKTSGFTFSSSYITWLKQKPGQSLEWIAWIYVGTGGISYNQKFTGKAQLTVDTSSSTAYMQFSSLTTEDSAIYYCARHGRYHWYFDVWGAGTTVTVSSGGGGSGGGGSGGGGSGGGGSDIVMTQSHKFMSTSVGDRVTITCKASQDVGTAVAWYQKKPGQSPKLLISWASTRHTGVPDRFTGSGSGTDFTLTISNVQSEDLADYFCQQYSSYPYTFGGGTNLEIK
notes: also called 6F6 clone PDL0136; not shown: human IgG1 WT Fc
B4: PDL01033 (Fc fusion)
scFv: EVQLQESGPSLVKPSQTLSLTCSVTGDSITSGYWNWIRKFPGKKLEYMGYISYTGSTYYNPSLKSRISIARDTSKNQYFLQLNSVTTEDTATYYCTRGENWDGGYFDYWGQGTTLTVSSGGGGSGGGGSGGGGSGGGGSDIQMTQTTSSLSASLGDRVTISCSASQGIRNYLNWYQQKPDGTVKLLIYYTSTLHSGVPSRFSGSGSGTDYSLTISNLEPEDIATYYCQQYSKLPWTFGGGTRLEIK
notes: also called 3G11HL x human IgG1 WT Fc; not shown: human IgG1 WT Fc (hinge-CH2-CH3) and its junction to the scFv
B5: PDL01038 (Fc fusion)
scFv: EVQLQESGPSLVKPSQTLSLTCSVTGDSITSGYWNWIRKFPGNRLEYMGFRSYSGTTYYNPSLKSRISITRDTSKNQYYLQLNSVTTEDTATYYCARFSDFGSSENTMDYWGQGTSVTVSSGGGGSGGGGSGGGGSGGGGSDVQITQSPSYLAASPGETITINCRASKSISKYLAWYQEKPGKTNKLLIYSGSTLQSGIPSRFSGSGSGTDFTLTISSLEPEDFAMYYCQQHNEYPFTFGAGTKLEIK
notes: also called 7A3-2HL x human IgG1 WT Fc; not shown: human IgG1 WT Fc (hinge-CH2-CH3) and its junction to the scFv
B6: PDL01041 (Fc fusion)
scFv: DIQMTQSPASLSASVGETVTITCRASENIYSFLAWYQQKQGKSPQLLVYKAKTLTEGVPSRFSGSGSGTQFSLKINSLQPEDFGSYYCQHHYGSPPETFGGGTKVEIKGGGGSGGGGSGGGGSGGGGSDVKLVESGGGLVKPGGSLKLSCAASGFTFSSYTMSWVRQTPEKRLEWVATISSGGNYTYYPDSVKGRFTISRDNAKNTLYLQLSSLKSEDTAMYYCTRDQAYYGNLFTYWGQGTLVTVSA
notes: also called 2C11LH x human IgG1 WT Fc; not shown: human IgG1 WT Fc and any junction residues between scFv and hinge
B7: PDL01039 (Fc fusion)
scFv: EVQLQESGPSLVKPSQTLSLTCSVTGDSITSGYWNWIRKFPGKKLEYMGYISYTGSTYYNPSLKSRISIARDTSKNQYFLQLNSVTTEDTATYYCTRGENWDGGYFDYWGQGTTLTVSSGGGGSGGGGSGGGGSGGGGSDIVLTQSPASLAVSLGQRATISCRASKSVSKSGYSYLHWYQQKPGQTPKLLIYLASNLESGVPARFSGSGSGTDFTLNIHPVEEEDAATYYCQHSWELPYTFGGGTKLEIK
notes: also called 7H11HL x human IgG1 WT Fc; not shown: human IgG1 WT Fc (hinge-CH2-CH3) and its junction to the scFv
B8: PDL01042 (Fc fusion)
scFv: DIQMTQTTSSLSASLGDRVTISCSASQGIRNYLNWYQQKPDGTVKLLIYYTSTLHSGVPSRFSGSGSGTDYSLTISNLEPEDIATYYCQQYSKLPWTFGGGTRLEIKGGGGSGGGGSGGGGSGGGGSQIQLQQSGPELVKPGASVKISCKASGYTFTDYYINWVKQKPEQGLEWIGWTFPGSINTKYNEKFKGKATLTVDTSSSTAYMQLNSLTSEDTAVYFCARSPYEFDYWGQGTTLTVSS
notes: also called 3G5LH x human IgG1 WT Fc; not shown: human IgG1 WT Fc (hinge-CH2-CH3) fused C-terminal to the scFv, and its junction
B9: PDL01051 (antibody, human IgG1, kappa, V domains shown)
VH: EVQLQESGPSLVKPSQTLSLTCSVTGDSITSGYWNWIRKFPGNRLEYMGFRSYSGTTYYNPSLKSRISITRDTSKNQYYLQLNSVTTEDTATYYCARFSDFGSSENTMDYWGQGTSVTVSS
VL: DIVMTQSHKFMSTSVGDRVTITCKASQDVGTAVAWYQKKPGQSPKLLISWASTRHTGVPDRFTGSGSGTDFTLTISNVQSEDLADYFCQQYSSYPYTFGGGTNLEIKR
notes: positive control; also called 7A3 chimeric mAb
B10: PDL01047 (Fc fusion, not shown: a dimerising Fc or GST; small tags and cut ends)
scFv: DVQITQSPSYLAASPGETITINCRASKSISKYLAWYQEKPGKTNKLLIYSGSTLQSGIPSRFSGSGSGTDFTLTISSLEPEDFAMYYCQQHNEYPFTFGAGTKLEIKGGGGSGGGGSGGGGSGGGGSEVQLQESGPSLVKPSQTLSLTCSVTGDSITSGYWNWIRKFPGNRLEYMGFRSYSGTTYYNPSLKSRISITRDTSKNQYYLQLNSVTTEDTATYYCARFSDFGSSENTMDYWGQGTSVTVSS
notes: also called 7A3-2LH x human IgG1 WT Fc
B11: PDL01050 (antibody, human IgG1, kappa, V domains shown)
VH: EVKFEESGGGLVQPGGSMKLSCFASGFTFSYYWMNWVRQSPEKGLEWIAEIRLKSNNYATHYAESVKGRFTISRDDSKSSVYLEMNNLRAEDTGIYHCTRPPIYYGNYEAYWGQGTLVTVSA
VL: DIQMTQSPSSLSASLGGKVTITCKASQDINKYIAWYQHKPGKGPRLLIHYTSILQPGIPSRFSGSGSGRDYSFSISNLEPEDIATYYCLQYDNLRTFGGGTKLEIKR
notes: positive control; also called 5F11 chimeric mAb
B12: CD4001093 (Fc fusion)
chain: DVVMTQSPDTLSLSPGERATLSCRSSQSLVHYNGYTYLHWYQQQPGQAPRLLIYKVSNRFSGIPDRFSGSGSGTDFTLTISRLEPEDFAVYFCSQTTHVPLTFGQGTKLEIKGGGGSGGGGSGGGGSGGGGSEVQLLESGGGLVQPGGSLRLSCAASGFTFSSYAMSWVRQAPGKGLEWVASISSAGTYIYYTDSVKGRFSISRDNSKNTLYLQMNSLRAEDTAVYYCARHGNGYDPLWYFDVWGQGTTVTVSS
notes: As m65; not shown: wildtype IgG1 Fc region
B13: CD4001095 (Fc fusion)
chain: B12 chain with E133Q, L137V, E178V, T193A, S201T, S207A, N216T, V225I, T248A, T249L
notes: as for B12
B14: CD4001101 (Fc fusion)
scFv: DIQMTQSPSTLSASVGDRVTITCKSSQSLLFSVNQKNYLAWYQQKPGKAPKLLIYWASTRESGVPARFSGSGSGTEFTLTISSLQPDDFATYYCQHYYSYPWTFGQGTKVEVKGGGGSGGGGSGGGGSGGGGSQVQLVQSGAEVKKPGASVKVSCKASGYTFSTSWIEWIKQAPGQGLEWIGEILPGSGSTNYNENFRNKATFTADTSISTAYMELSRLRSDDTAVYYCARGDDGSYVRWYFDVWGQGTLVTVSS
notes: CDR-grafted 1D5 scFv in scFv-hFc format; not shown: the human Fc (hinge-CH2-CH3) of the scFv-hFc format
B15: CD4001102 (Fc fusion)
scFv: B14 scFv with T10S, A66S, E76D, L79F, D87E, F89I, Q106G, V112I
notes: As m82; not shown: the human Fc (hinge-CH2-CH3) of the scFv-hFc format
B16: CD4001092 (Fc fusion)
chain: DVVMTQSPDSLAVSLGERATINCRSSQSLVHYNGYTYLHWYQQKPGQPPKLLIYKVSNRFSGVPDRFSGSGSGTDFTLTISSLQAEDVAVYFCSQTTHVPLTFGAGTKLELRGGGGSGGGGSGGGGSGGGGSEVQLVESGGGVVQPGRSLRLSCAASGFTFSSYAMSWVRQAPGKGLEWVASISSAGTYIYYADSVKGRFTISRDNSKNTLYLQMNGLRAEDTAVYYCARHGNGYDPLWYFDVWGQGTLVTVSS
notes: as for B12
B17: CD4001242 (Fc fusion)
chain: EPKSSDKTHTCPPCPAPPAAAPSVFLFPPKPKDTLMISRTPEVTCVVVDVSHEDPEVKFNWYVDGVEVHNAKTKPREEQYNSTYRVVSVLTVLHQDWLNGKEYKCAVSNKALPAPIEKTISKAKGQPREPQVYTLPPSRDELTKNQVSLTCLVKGFYPSDIAVEWESNGQPENNYKTTPPVLDSDGSFFLYSKLTVDKSRWQQGNVFSCSVMHEALHNHYTQKSLSLSPGGGGSPSDIQMTQSPSSVSASVGDRVTITCRASQSLLFSVNQKNYLAWYQQKPGKAPKLLIYWASSLQSGVPSRFSGSGSGTDFTLTISSLQPEDFATYYCQHYYSYPWTFGQGTKVEIKGGGGSGGGGSGGGGSGGGGSQVQLVQSGAEVKKPGSSVKVSCKASGYTFSTSWIEWIRQAPGQGLEWMGSILPGSGSTNYAQKFQGRVTITADTSTSTAYMELSSLRSEDTAVYYCARGDDGSYVRWYFDHWGQGTLVTVSS
notes: also called final humanized version of 1D5

What follows are binders tested against T2, Cyno PD-L1 full-length (cynomolgus, UniProt Q9NZQ7 19-290 (human entry)) (assay: MSD cell binding, CHOK1SV/cynomolgus PD-L1 cells; x axis without printed unit).
T2 construct: also called PDL01022; CHOK1SV/cynoPDL1
T2 sequence (Q9NZQ7 other isoform, or with tags, fused parts or gaps): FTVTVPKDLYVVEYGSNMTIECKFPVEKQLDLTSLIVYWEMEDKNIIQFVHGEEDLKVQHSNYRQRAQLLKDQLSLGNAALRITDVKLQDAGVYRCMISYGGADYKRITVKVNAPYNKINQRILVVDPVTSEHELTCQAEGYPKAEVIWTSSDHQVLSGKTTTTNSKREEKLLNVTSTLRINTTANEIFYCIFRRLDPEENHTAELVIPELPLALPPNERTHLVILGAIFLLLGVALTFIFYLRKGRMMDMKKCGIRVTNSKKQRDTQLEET

Binding result, binds:
B1
B2
B3
B4
B5
B6
B7
B8
B9
B10
B11

These binders were tested against T3, human CD40 full-length (human, UniProt P25942 21-277) (assay: flow cytometry, CHOK1SV/human CD40 cells).
T3 construct: Also used for CD40 of Daudi cells, of CD40-expressing HEK293 cells and of the BPS CD40/NFkB HEK293 reporter cells where the row says so; also called CD4001012; CHOK1SV/CD40

Binding result, binds:
B12
B13
B14
B15
B16

Molecular target: T1, Cynomolgus CHOK1SV/CD40
Assay: flow cytometry, CHOK1SV/cynomolgus CD40 cells

Binding result, binds:
B17

These binders were tested against T4, Human PD-L1 full-length (human, UniProt Q9NZQ7 19-290) (assay: MSD cell binding, CHOK1SV/human PD-L1 cells; x axis without printed unit).
T4 construct: also called PDL01021; CHOK1SV/huPDL1
T4 sequence (Q9NZQ7 19-290): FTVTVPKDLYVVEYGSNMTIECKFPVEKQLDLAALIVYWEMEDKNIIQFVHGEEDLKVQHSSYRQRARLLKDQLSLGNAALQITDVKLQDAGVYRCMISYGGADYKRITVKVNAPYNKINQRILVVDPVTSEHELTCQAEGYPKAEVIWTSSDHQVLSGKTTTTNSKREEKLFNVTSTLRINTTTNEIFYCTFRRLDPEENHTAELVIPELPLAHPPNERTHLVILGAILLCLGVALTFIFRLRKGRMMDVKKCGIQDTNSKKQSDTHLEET

Binding result, binds:
B1
B2
B3
B4
B5
B6
B7
B8
B9
B10
B11
